Sequences and labels used below:
B1: H183/L072 VH I51N (antibody, name in Kabat numbering, V domains shown)
VH: QVQLVESGGGLVQPGRSLRLSCAASGFTFSNAWMHWVRQAPGKGLEWVAQNKDKGNAYAAYYAPSVKGRFTISRDDSKNSIYLQMNSLKTEDTAVYYCHYVHYASASTVLPAFGVDAWGQGTTVTVSS
VL: DIVMTQSPLSLPVTPGEPASISCQASQELVHMNRNTYLHWYQQKPGQAPRLLIYKVSNRFPGVPDRFSGSGSGTDFTLKISRVEAEDVGVYYCAQGTSVPFTFGQGTKLEIK
B2: H183/L072 VH I51Y (antibody, name in Kabat numbering, V domains shown)
VH: QVQLVESGGGLVQPGRSLRLSCAASGFTFSNAWMHWVRQAPGKGLEWVAQYKDKGNAYAAYYAPSVKGRFTISRDDSKNSIYLQMNSLKTEDTAVYYCHYVHYASASTVLPAFGVDAWGQGTTVTVSS
VL: DIVMTQSPLSLPVTPGEPASISCQASQELVHMNRNTYLHWYQQKPGQAPRLLIYKVSNRFPGVPDRFSGSGSGTDFTLKISRVEAEDVGVYYCAQGTSVPFTFGQGTKLEIK
B3: H183/L072 VH K52bG (antibody, name in Kabat numbering, V domains shown)
VH: QVQLVESGGGLVQPGRSLRLSCAASGFTFSNAWMHWVRQAPGKGLEWVAQIKDGGNAYAAYYAPSVKGRFTISRDDSKNSIYLQMNSLKTEDTAVYYCHYVHYASASTVLPAFGVDAWGQGTTVTVSS
VL: DIVMTQSPLSLPVTPGEPASISCQASQELVHMNRNTYLHWYQQKPGQAPRLLIYKVSNRFPGVPDRFSGSGSGTDFTLKISRVEAEDVGVYYCAQGTSVPFTFGQGTKLEIK
B4: H183/L072 VH K52M (antibody, name in Kabat numbering, V domains shown)
VH: QVQLVESGGGLVQPGRSLRLSCAASGFTFSNAWMHWVRQAPGKGLEWVAQIMDKGNAYAAYYAPSVKGRFTISRDDSKNSIYLQMNSLKTEDTAVYYCHYVHYASASTVLPAFGVDAWGQGTTVTVSS
VL: DIVMTQSPLSLPVTPGEPASISCQASQELVHMNRNTYLHWYQQKPGQAPRLLIYKVSNRFPGVPDRFSGSGSGTDFTLKISRVEAEDVGVYYCAQGTSVPFTFGQGTKLEIK
B5: H183/L072 VH K52R (antibody, name in Kabat numbering, V domains shown)
VH: QVQLVESGGGLVQPGRSLRLSCAASGFTFSNAWMHWVRQAPGKGLEWVAQIRDKGNAYAAYYAPSVKGRFTISRDDSKNSIYLQMNSLKTEDTAVYYCHYVHYASASTVLPAFGVDAWGQGTTVTVSS
VL: DIVMTQSPLSLPVTPGEPASISCQASQELVHMNRNTYLHWYQQKPGQAPRLLIYKVSNRFPGVPDRFSGSGSGTDFTLKISRVEAEDVGVYYCAQGTSVPFTFGQGTKLEIK
B6: H183/L072 VH K52Q (antibody, name in Kabat numbering, V domains shown)
VH: QVQLVESGGGLVQPGRSLRLSCAASGFTFSNAWMHWVRQAPGKGLEWVAQIQDKGNAYAAYYAPSVKGRFTISRDDSKNSIYLQMNSLKTEDTAVYYCHYVHYASASTVLPAFGVDAWGQGTTVTVSS
VL: DIVMTQSPLSLPVTPGEPASISCQASQELVHMNRNTYLHWYQQKPGQAPRLLIYKVSNRFPGVPDRFSGSGSGTDFTLKISRVEAEDVGVYYCAQGTSVPFTFGQGTKLEIK
B7: H183/L072 VH K52N (antibody, name in Kabat numbering, V domains shown)
VH: QVQLVESGGGLVQPGRSLRLSCAASGFTFSNAWMHWVRQAPGKGLEWVAQINDKGNAYAAYYAPSVKGRFTISRDDSKNSIYLQMNSLKTEDTAVYYCHYVHYASASTVLPAFGVDAWGQGTTVTVSS
VL: DIVMTQSPLSLPVTPGEPASISCQASQELVHMNRNTYLHWYQQKPGQAPRLLIYKVSNRFPGVPDRFSGSGSGTDFTLKISRVEAEDVGVYYCAQGTSVPFTFGQGTKLEIK
B8: H183/L072 VH K52bH (antibody, name in Kabat numbering, V domains shown)
VH: QVQLVESGGGLVQPGRSLRLSCAASGFTFSNAWMHWVRQAPGKGLEWVAQIKDHGNAYAAYYAPSVKGRFTISRDDSKNSIYLQMNSLKTEDTAVYYCHYVHYASASTVLPAFGVDAWGQGTTVTVSS
VL: DIVMTQSPLSLPVTPGEPASISCQASQELVHMNRNTYLHWYQQKPGQAPRLLIYKVSNRFPGVPDRFSGSGSGTDFTLKISRVEAEDVGVYYCAQGTSVPFTFGQGTKLEIK
B9: H183/L072 VH I51T (antibody, name in Kabat numbering, V domains shown)
VH: QVQLVESGGGLVQPGRSLRLSCAASGFTFSNAWMHWVRQAPGKGLEWVAQTKDKGNAYAAYYAPSVKGRFTISRDDSKNSIYLQMNSLKTEDTAVYYCHYVHYASASTVLPAFGVDAWGQGTTVTVSS
VL: DIVMTQSPLSLPVTPGEPASISCQASQELVHMNRNTYLHWYQQKPGQAPRLLIYKVSNRFPGVPDRFSGSGSGTDFTLKISRVEAEDVGVYYCAQGTSVPFTFGQGTKLEIK
B10: H183/L072 VH K52bL (antibody, name in Kabat numbering, V domains shown)
VH: QVQLVESGGGLVQPGRSLRLSCAASGFTFSNAWMHWVRQAPGKGLEWVAQIKDLGNAYAAYYAPSVKGRFTISRDDSKNSIYLQMNSLKTEDTAVYYCHYVHYASASTVLPAFGVDAWGQGTTVTVSS
VL: DIVMTQSPLSLPVTPGEPASISCQASQELVHMNRNTYLHWYQQKPGQAPRLLIYKVSNRFPGVPDRFSGSGSGTDFTLKISRVEAEDVGVYYCAQGTSVPFTFGQGTKLEIK
B11: H183/L072 VH K52Y (antibody, name in Kabat numbering, V domains shown)
VH: QVQLVESGGGLVQPGRSLRLSCAASGFTFSNAWMHWVRQAPGKGLEWVAQIYDKGNAYAAYYAPSVKGRFTISRDDSKNSIYLQMNSLKTEDTAVYYCHYVHYASASTVLPAFGVDAWGQGTTVTVSS
VL: DIVMTQSPLSLPVTPGEPASISCQASQELVHMNRNTYLHWYQQKPGQAPRLLIYKVSNRFPGVPDRFSGSGSGTDFTLKISRVEAEDVGVYYCAQGTSVPFTFGQGTKLEIK
B12: H183/L072 VH I51V (antibody, name in Kabat numbering, V domains shown)
VH: QVQLVESGGGLVQPGRSLRLSCAASGFTFSNAWMHWVRQAPGKGLEWVAQVKDKGNAYAAYYAPSVKGRFTISRDDSKNSIYLQMNSLKTEDTAVYYCHYVHYASASTVLPAFGVDAWGQGTTVTVSS
VL: DIVMTQSPLSLPVTPGEPASISCQASQELVHMNRNTYLHWYQQKPGQAPRLLIYKVSNRFPGVPDRFSGSGSGTDFTLKISRVEAEDVGVYYCAQGTSVPFTFGQGTKLEIK
B13: H183/L072 VH K52bE (antibody, name in Kabat numbering, V domains shown)
VH: QVQLVESGGGLVQPGRSLRLSCAASGFTFSNAWMHWVRQAPGKGLEWVAQIKDEGNAYAAYYAPSVKGRFTISRDDSKNSIYLQMNSLKTEDTAVYYCHYVHYASASTVLPAFGVDAWGQGTTVTVSS
VL: DIVMTQSPLSLPVTPGEPASISCQASQELVHMNRNTYLHWYQQKPGQAPRLLIYKVSNRFPGVPDRFSGSGSGTDFTLKISRVEAEDVGVYYCAQGTSVPFTFGQGTKLEIK
B14: H183/L072 VH K52bN (antibody, name in Kabat numbering, V domains shown)
VH: QVQLVESGGGLVQPGRSLRLSCAASGFTFSNAWMHWVRQAPGKGLEWVAQIKDNGNAYAAYYAPSVKGRFTISRDDSKNSIYLQMNSLKTEDTAVYYCHYVHYASASTVLPAFGVDAWGQGTTVTVSS
VL: DIVMTQSPLSLPVTPGEPASISCQASQELVHMNRNTYLHWYQQKPGQAPRLLIYKVSNRFPGVPDRFSGSGSGTDFTLKISRVEAEDVGVYYCAQGTSVPFTFGQGTKLEIK
B15: H183/L072 VH K52L (antibody, name in Kabat numbering, V domains shown)
VH: QVQLVESGGGLVQPGRSLRLSCAASGFTFSNAWMHWVRQAPGKGLEWVAQILDKGNAYAAYYAPSVKGRFTISRDDSKNSIYLQMNSLKTEDTAVYYCHYVHYASASTVLPAFGVDAWGQGTTVTVSS
VL: DIVMTQSPLSLPVTPGEPASISCQASQELVHMNRNTYLHWYQQKPGQAPRLLIYKVSNRFPGVPDRFSGSGSGTDFTLKISRVEAEDVGVYYCAQGTSVPFTFGQGTKLEIK
B16: H183/L072 VH K52bI (antibody, name in Kabat numbering, V domains shown)
VH: QVQLVESGGGLVQPGRSLRLSCAASGFTFSNAWMHWVRQAPGKGLEWVAQIKDIGNAYAAYYAPSVKGRFTISRDDSKNSIYLQMNSLKTEDTAVYYCHYVHYASASTVLPAFGVDAWGQGTTVTVSS
VL: DIVMTQSPLSLPVTPGEPASISCQASQELVHMNRNTYLHWYQQKPGQAPRLLIYKVSNRFPGVPDRFSGSGSGTDFTLKISRVEAEDVGVYYCAQGTSVPFTFGQGTKLEIK
B17: H183/L072 VH I51S (antibody, name in Kabat numbering, V domains shown)
VH: QVQLVESGGGLVQPGRSLRLSCAASGFTFSNAWMHWVRQAPGKGLEWVAQSKDKGNAYAAYYAPSVKGRFTISRDDSKNSIYLQMNSLKTEDTAVYYCHYVHYASASTVLPAFGVDAWGQGTTVTVSS
VL: DIVMTQSPLSLPVTPGEPASISCQASQELVHMNRNTYLHWYQQKPGQAPRLLIYKVSNRFPGVPDRFSGSGSGTDFTLKISRVEAEDVGVYYCAQGTSVPFTFGQGTKLEIK
B18: H183/L072 VH K52bA (antibody, name in Kabat numbering, V domains shown)
VH: QVQLVESGGGLVQPGRSLRLSCAASGFTFSNAWMHWVRQAPGKGLEWVAQIKDAGNAYAAYYAPSVKGRFTISRDDSKNSIYLQMNSLKTEDTAVYYCHYVHYASASTVLPAFGVDAWGQGTTVTVSS
VL: DIVMTQSPLSLPVTPGEPASISCQASQELVHMNRNTYLHWYQQKPGQAPRLLIYKVSNRFPGVPDRFSGSGSGTDFTLKISRVEAEDVGVYYCAQGTSVPFTFGQGTKLEIK
B19: H183/L072 VH K52bF (antibody, name in Kabat numbering, V domains shown)
VH: QVQLVESGGGLVQPGRSLRLSCAASGFTFSNAWMHWVRQAPGKGLEWVAQIKDFGNAYAAYYAPSVKGRFTISRDDSKNSIYLQMNSLKTEDTAVYYCHYVHYASASTVLPAFGVDAWGQGTTVTVSS
VL: DIVMTQSPLSLPVTPGEPASISCQASQELVHMNRNTYLHWYQQKPGQAPRLLIYKVSNRFPGVPDRFSGSGSGTDFTLKISRVEAEDVGVYYCAQGTSVPFTFGQGTKLEIK
B20: H183/L072 VH K52bM (antibody, name in Kabat numbering, V domains shown)
VH: QVQLVESGGGLVQPGRSLRLSCAASGFTFSNAWMHWVRQAPGKGLEWVAQIKDMGNAYAAYYAPSVKGRFTISRDDSKNSIYLQMNSLKTEDTAVYYCHYVHYASASTVLPAFGVDAWGQGTTVTVSS
VL: DIVMTQSPLSLPVTPGEPASISCQASQELVHMNRNTYLHWYQQKPGQAPRLLIYKVSNRFPGVPDRFSGSGSGTDFTLKISRVEAEDVGVYYCAQGTSVPFTFGQGTKLEIK

T1 sequence (chain, as listed by the source limits assumed): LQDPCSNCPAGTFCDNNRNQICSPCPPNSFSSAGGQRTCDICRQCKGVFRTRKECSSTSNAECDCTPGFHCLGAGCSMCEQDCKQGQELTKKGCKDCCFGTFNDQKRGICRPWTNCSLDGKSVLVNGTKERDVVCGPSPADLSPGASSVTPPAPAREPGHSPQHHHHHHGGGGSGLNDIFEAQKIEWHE

The test has as its target T1, Human CD137 ECD (human).
T1 construct: also called 4-1BB
As to the kind of experiment: single mutant vs template dBBDu183H.
In the case of B1, the “fold change of affinity” value was 0.2 fold.

As for B2, the “fold change of affinity” value was determined as 0 fold.

In the case of B3, the “fold change of affinity” value came out at 0.9 fold.

In the case of B4, the “fold change of affinity” value was found to be 0.3 fold.

B5: the “fold change of affinity” value was 0.2 fold.

Regarding B6, the “fold change of affinity” value was 0.3 fold.

As to B7, the “fold change of affinity” value was found to be 0.2 fold.

As for B8, the “fold change of affinity” value came out at 0.7 fold.

Take B9: the “fold change of affinity” value amounted to 0.3 fold.

Consider B10, for which the “fold change of affinity” value is 0.5 fold.

For the molecule B11, the “fold change of affinity” value turned out to be 0 fold.

For the molecule B12, the “fold change of affinity” value was found to be 1 fold.

Take B13: the “fold change of affinity” value came out at 0.5 fold.

B14: the “fold change of affinity” value is 0.2 fold.

As for B15, the “fold change of affinity” value was determined as 0.1 fold.

Turning to B16, the “fold change of affinity” value was 0.8 fold.

Turning to B17, the “fold change of affinity” value came to 0.4 fold.

Turning to B18, the “fold change of affinity” value was determined as 1 fold.

On to B19, for which the “fold change of affinity” value turned out to be 0.7 fold.

Consider B20, for which the “fold change of affinity” value turned out to be 0.6 fold.

The values are drawn from patent US20210388087A1 (Chugai, published 2021).
